The text below walks through data of the nanobody polyreactivity screen of Harvey et al. (2022).

The data set in a line: yeast display, Sf9 membrane polyspecificity reagent, FACS + sequencing; frameworks hold sequencing errors. An outline of the steps: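 A synthetic nanobody library was expressed on Saccharomyces cerevisiae BJ5465 by galactose induction for 36–48 hours. The library was stained for 1 hour at 4 °C with 10% biotinylated, detergent-solubilized Sf9 membrane reagent and enriched with streptavidin microbeads before FACS. Low and high (top ~1%) gates were set on anti-HA fluorescence for expression and streptavidin fluorescence for reagent binding, and each polyreactivity label reflects the gate of origin.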
For “QVQLVESGGGLVQAGGSLRLSCAASAIILQRNDMGRYRQAPGKERELVANIRDGGITFADSVKGRFTISRDNAKNTVYLQMNSLKPEDTAVYYCARDDTSPGYGDQSSNAAYYYWGQGTQVTVSS”, the “polyreactivity (PSR sort gate)” value was “low polyreactivity”.

In the case of “QVQLVESGGGLVQAVGSLRLTCAASGITFLNYAMGWYRQAPGKERELVSAISWSGGRTYYAVSVKGRFTISRDYAKNTVYLQMNSLKPEDTAVYYCATVYVRYRQSRLIRYGYWGQGTQVTVSS”, the “polyreactivity (PSR sort gate)” value was “high polyreactivity”.

Take “QDQLVESGGGLVQAGGSLRLSCAASGSTFNAYAMGWYRQAPGKERQLVASITKSGGRTYYADSVKRRFTISRDNAKNTVYLQMNRLKPEDSAVYYCAARYVWRSTHHRGSTYDYWGQGTQVTVSS”: the “polyreactivity (PSR sort gate)” value is on record as “high polyreactivity”.

Consider “QVQLVESGGGLVQAGGSLRLSCAASGSTLYSYAMGWYRQAPGKEREFVAAITSDDGSTYYADSVKGRFTISRDNAKNTVYLQMNSLKPEDTAVYYCATAASVEYNYWGQGTQVTVSS”, for which the “polyreactivity (PSR sort gate)” value is “low polyreactivity”.

For “QVQLVESGGGLVQAGGSLRLSCAASGSTFNTYAMGWYRQAPGKERELVAAITWRGGRTYYADSVKGRFTISRDNAKNTVYLQMNSLKPEDTAVYYCAARRTYYSRKPRFDYWGQGTQVTVSS”, the “polyreactivity (PSR sort gate)” value was “high polyreactivity”.

In the case of “QVQLVESGGGLVQAGGSLRLSCAASGRTFPWYAMGWYRQAPGKERELVAAITYSVGSTYYADSVKGRFTISRDNAKNTVYLQMNSLKPEDTAVYYCAADSYPYRYRGKYSRLDYWGQGTQVTVSS”, the “polyreactivity (PSR sort gate)” value is listed as “low polyreactivity”.

As to “QVQLVESGGGLVQAGGSLRLSCAASGSTFYVNAMGSYRKAPGKEMEFVAAITWNSGSTYYADSVKGRFTISRDNANYTVYLQMNSLKPEDTAVYYCAAVLSVRDYGYDYWGQGTQVTVSS”, the “polyreactivity (PSR sort gate)” value is recorded as “low polyreactivity”.

“QVQLVESGGGLVQAGGSLRLSCAASGRIFYFNAMGWYRQAPGKERELVAAISWRGGSTYYADSVKGRFTISRDYAKNTVYLQMNSLKPEDTAVYYCNAVLWGYWPGYDYWGQGTQVTVSS”: the “polyreactivity (PSR sort gate)” value is listed as “high polyreactivity”.

As for “QLQLVESGGGLVQAGGSLRLSCAPSGRIFPSYAMGWYRQAPGKERELVAPISWSGVSTYADSVKGRFTISRDNAKNTVYLQMNSVKPEDTAVYFCAAQYTLVIFPYGGYVIEYEYWGQGTQVTVSS”, the “polyreactivity (PSR sort gate)” value is on record as “low polyreactivity”.

Regarding “QVQLVESGGGLVQAGGSLRLSCAASGSTFGFYAMGWYRQAPGKERELVAAISGRGGSTYYADSVKGRFTISRDNAKNTVYLQMNSLKPEDTAVYYCNADWQDDLAGYVVDYWGLGTQVTVSS”, the “polyreactivity (PSR sort gate)” value was “low polyreactivity”.

As to “QVQLVESGGGLVQAGGSLRLSCAASGYIFWSYAMGWYRQAPGKERELVAAISAYGCRTYYADSVKGRFTISRDNAKTTVYLQMNSLKPEDTAVYYCNADTGNHAYWYYGEFYYYTYDYWGQGTQVTVSS”, the “polyreactivity (PSR sort gate)” value was “low polyreactivity”.

On to “QVQLVESVVGLVQAGGSLRLSCAASGGTFSFNAIGWYRQAPGKETELVAAITQTGDGTYYADSVKGRFTISRDNAKNSVYLQMNIMKPEDTAVYYCNTDSIPFVPWFRFDYWGQGTQVTVSS”, for which the “polyreactivity (PSR sort gate)” value is “low polyreactivity”.

Take “HVQLVESGGGLVQAGGSLRLSCAASGITFYDNVMGWYRQAAGKERELVAAITDSGGSTYYADSVKGRFTISRDNEKNTDYLQMNSLNPEDTAVYYCNAEVNAHWWWYIEDYWGQGTQVTVSS”: the “polyreactivity (PSR sort gate)” value is “low polyreactivity”.

For “QVQLVESGGGLVQAGGSLRLSCAASGRIFYLYAMGWYRQAPGKERELVAAITWSGGSTYYADSVKGRFTISRDNAKNTVYLQMNSLKPEDTAVYYCARDDAYSDFDYDYWGQGTQVTVSS”, the “polyreactivity (PSR sort gate)” value is “low polyreactivity”.

Turning to “QVQLVESGGGLVQAGGSLRLSCAASGLTFAWYAMGWYRPAPGKERELVATITSGGSTNYADSVKGRFTISRDNAKNTVYLQMNSLKPEDTAVYYCNADYIYYGTTYEYWGQGTQVTVSS”, the “polyreactivity (PSR sort gate)” value is “low polyreactivity”.

As for “QLQLVESGGGLVQAGGSLRLSCAASGFTFRCNAMGWYRQAPGKEMELVAGITSGGSTNYADSVKGRFTISRDNAKNTVYLQMNSLKPEDTAVYYCNAAWYRWKQRYDYWGQGTQVTVSS”, the “polyreactivity (PSR sort gate)” value is “low polyreactivity”.

As for “QVQLVESGGGLVQAGGSLRLSCAASGSIFDGNAMGWYRQAPGKERELVAAITNSGGSTYYADSVKGRFTISRDNAKNTVYLQMNSLKPEDTAVYYCNALPFAWRRYRWVRTMYYWGQGTQVTVSS”, the “polyreactivity (PSR sort gate)” value is reported as “low polyreactivity”.

As to “QFQLVESGGGLVQSGGSLRLSCAASGLIFVFYAMGWYRQAPGKERELVAAISTSGDRTYYADSVKGRFTISRDNAKNTVYLQMNSLKPEDTAVYYCAAGRRKVPYSREYYYWGQGTQVTVSS”, the “polyreactivity (PSR sort gate)” value is “high polyreactivity”.

In the case of “QVQLVESGGGLVQAGGSLRLSCAASGITFGRYAMGWYRQAPGKERELVAAITWSGGSTYYADSVKGRFTISRDNSKNTVYLQMNSLKPEDTAVYYCAATWYPGRAGYYYWGQGTQVTVSS”, the “polyreactivity (PSR sort gate)” value is given as “high polyreactivity”.

As for “QVQLVVSGGGLVQAGGSLRLSCAASGSILDSNAMGWYRQAPGKERELVAAITSGGSTYYADSVKGRFTISRDNAKNTVYLQMNSLKPEDTAVYYCNANGVQYFLYGYWGQGTQVTVSS”, the “polyreactivity (PSR sort gate)” value was “low polyreactivity”.

In the case of “QVQLVESGGGLVQAGGSLRLSCAASGGIFIRNAMGWYRQAPGKERELVATISNAGSTYADSVKGRFTISRDNAKNTVYLQMNSLKPEDTAVYYCNRDDWTYPVSQGLQEYDYWGQGTQVTVSS”, the “polyreactivity (PSR sort gate)” value is recorded as “low polyreactivity”.

Take “QVQLVESGGGLVQAGGSLRLSCAASGSIFIYNAMGWYRQAPGKERELVAAISSSGGSTYYADSVKGRFTISRDNAKNTVYLQMNSLNPEDTAVSYCAARTYYVRGLGGRPGMDYWGQGTQVTVSS”: the “polyreactivity (PSR sort gate)” value is on record as “low polyreactivity”.

Consider “QVQLVESGGGLVQPGGSLRLSCAASGSIFPRNAMGWYRKAPGKERELVAGISYGGSTTYYADSVKGRFTISRDNAKNTVYLQMNSLKPEDTAVYYCAALQQYRRQTTYSSQLYYWGQGTQVTVSS”, for which the “polyreactivity (PSR sort gate)” value is recorded as “high polyreactivity”.

As to “QVQLVESGGGLVQAGGSLRLSCAASGSTYIDYAMGWYRQAPGKERELVASIRYSGGGTYYADSVKGRFTISRDNAKNTVYFQMNSLKPEDTAVYYCAKDTHLLNEHSGTSREYDYWGQGTQVTVSS”, the “polyreactivity (PSR sort gate)” value was “low polyreactivity”.

With “QVQLVESGGGLVQAGGSLRLSCAASGSTFKFNAMGWYRQAPGKEREFVAAITSSGDSTYYADSVKGRFTISRDNAKNTVYLQMNCLKPEDTAVYYCAAEFESSFALGFYYWGQGTEVTVSS”, the “polyreactivity (PSR sort gate)” value is “high polyreactivity”.

Regarding “QVQLQESGGGLVQAGGTLRLSCAASGSFSADEDMGWYRQAQGKEREFVAGISVGGNTNYADSVKGPFTISRENAKNTVYLQINSLKPEDTAVYYCAVLQDVYDALDFWAQGTQVTVSS”, the “polyreactivity (PSR sort gate)” value is listed as “high polyreactivity”.

Consider “QVQLVESGGGLVQAGGSLRLSCAASGRTFRSYVMGWYRQAPGKERELVAAITRSGGSTYYADSVKGRFTISRDNAKNTVYLQMNSLKPEDTAVYYCATDRWYYYPDYYPYGEYDYWGQGTQVTVSS”, for which the “polyreactivity (PSR sort gate)” value is recorded as “low polyreactivity”.

As to “QVQLVESGGGLVQAGGSLRLSCAASGSTFSTYAMGWYRQAPGTERELVAASRWSGGSTYYADSVKGRFTISRDNAKNTVYLQMNSLKPEDTAVYYCAKGIRRWYGGSDYWGQGTQVTVSS”, the “polyreactivity (PSR sort gate)” value is listed as “low polyreactivity”.

Take “QVQLVESAGGLVQAGGSLRLSCAASGRTLYRYAMGWYSQAPGKERELVAAIRWSGGSTYYADSVKGRFTISRDNAKNTVYLQMNSLKPEDTAVYYCNAGRSWRRTHYDYWGQGTQVTVSS”: the “polyreactivity (PSR sort gate)” value is on record as “high polyreactivity”.

With “QVQLVESGGGLVQAGGSLRLSCAASGFIFVTYAMGWYRQAPGKERELVAAITNSGGTTYYADSVKGRFTISRDNAKNTVYLQMISLKPEDSAVYYCNKPYGAETAHREFDYWGQGTQVTVSS”, the “polyreactivity (PSR sort gate)” value is listed as “low polyreactivity”.

Regarding “QFQLVESGGGLVQAGGSLRLSCAASGSIFFIYAMGWYRQAPGKERELVATITSGGSTYYADSVKGRFTISRDNAKNTVYLQMNSLKPEDTAVYYCAVDEYFAFDYWGQGTQVTVSS”, the “polyreactivity (PSR sort gate)” value was “low polyreactivity”.

“QVHLVESVGGLVQAGGSLRLSCTASGSTCVAYDMGWYRQAPGQERDLVAAITSSGGRTYYADSVKGRFKFSLDNAMNTVYLQMNSLKPEDTAVYYCAAVTHGRYDWGQGPQVTVSS”: the “polyreactivity (PSR sort gate)” value is recorded as “high polyreactivity”.

Turning to “QVQLVESWGGLVQAGGSLRLSCAASGRIFKTYAMGWYRQAPGNEREFFAAITSSGGSTYYADSVKGRFTISRDHAKNTVYLQKNSLNPEDTAVYYCNAGSLHRRYYYEGDYWGQGTQVTVSS”, the “polyreactivity (PSR sort gate)” value was “high polyreactivity”.

As for “QVQLVESGGGLVQAGGSLRLSCAASGSTFYPNAMGWYRQAPGKERELVAAITTSGGSTYYADSVKGRCTISRDNAKNTVYLQMNSLKPEDTAVYYCAAEVRDRGWEPYGPIYDYWGQGTQVTVSS”, the “polyreactivity (PSR sort gate)” value is given as “high polyreactivity”.

Turning to “QVQLVESGGGLVQAGGSLRLSCAASGRIFWVYAMGWYRQAPGKERELVAAIDWSDGITYYADSVKGRFTISRDNAKNTVYLQMNSLKPEDTAVYYCAAESVIYQTYNYWGQGTQVTVSS”, the “polyreactivity (PSR sort gate)” value is “high polyreactivity”.

Take “QVQLVESGGGLVQAGGSLRLSCAASGFTFIRYAMGWYRQAPGKARELVAAIRGTGTSTYYADSVKGRFTISRDNAKNTVYLQMNSLKPEDTAVYYCNKVAGRSPYTRYDYWGQGTQVTVSS”: the “polyreactivity (PSR sort gate)” value is “low polyreactivity”.

For the sequence “QVQLQESGGGLVQAGGSLRLSCAASGTISQEDRMGWYRQAPGKEREFVAAIGLGSNTNYADSLKGRFTISRDNAKNTVYLQMNSLKPEDTAVYYCAVSVWQYSDHVYRGQGTQVTVSS”, the “polyreactivity (PSR sort gate)” value was “low polyreactivity”.

Regarding “QVQLVESGGGLVQAGGSLRLSCAASGITLYINAMGWYRQAPGKERELVAAITRIGGRTYYADSVKGRFTISRDNAKNTVYLQMNSLKPEDTAVYYCNARTYNAFNYWGQGTQVTVSS”, the “polyreactivity (PSR sort gate)” value is given as “high polyreactivity”.

As to “QVHLVESGGGLVQAGGSRRLSCAASGFTLSYYAMGWYRQAPGKERELVATISRVGTTYADSVKGRFTISRDNAKNTVYLQMNSLKPEDTAVYYCAVRSRWPYYFTRGVREGDYWGQGTQVTVSS”, the “polyreactivity (PSR sort gate)” value was “high polyreactivity”.

On to “QVQLVESGGGLVQAGGSLRLSCAASGSIFLLYYMGWYRQAPGKERELVAANTWSGGSTYYADSVKGRFTISRDNAKNSVYLQMNSLKPEDTAVYYFAADEPYPTAYEYWGQGTQVTLSS”, for which the “polyreactivity (PSR sort gate)” value is on record as “low polyreactivity”.
